This test deals with T1, XRCC4 (residues 1-336) (human, UniProt Q13426 1-336).
T1 construct: XRCC4, human, residues 1-336; The copies value of 2 rests on the introduction's words (one XRCC4 homodimer and one Lig4 monomer in the active complex), not on a measurement made here; also called X4
Nature of the test: differential scanning fluorimetry; Lig4 C-ter and XRCC4 equimolar at 5 uM in 20 mM HEPES pH 7.5, 100 mM KCl, 2 mM EDTA, 1 mM DTT, 66 mM NDSB-195, 10% glycerol, 10X SYPRO Orange; heated from 20 to 89 °C. As to conditions: both partners purified. A general note: In DSF a fluorescence change marks the thermal transition of the protein.

T1 sequence (Q13426 whole entry, the tested form may be a part): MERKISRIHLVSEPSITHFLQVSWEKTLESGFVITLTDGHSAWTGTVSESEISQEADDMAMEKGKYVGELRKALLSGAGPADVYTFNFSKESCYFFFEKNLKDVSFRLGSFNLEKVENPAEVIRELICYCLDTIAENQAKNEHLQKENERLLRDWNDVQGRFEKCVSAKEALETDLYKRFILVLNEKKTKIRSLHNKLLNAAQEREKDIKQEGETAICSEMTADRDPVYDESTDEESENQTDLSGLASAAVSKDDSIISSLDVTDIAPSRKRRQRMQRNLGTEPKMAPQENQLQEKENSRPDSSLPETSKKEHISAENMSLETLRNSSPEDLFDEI

B1: WT Lig4 C-ter domain (654-911) (domain or fragment, human, UniProt P49917 654-911, looked up)
chain: KISNIFEDVEFCVMSGTDSQPKPDLENRIAEFGGYIVQNPGPDTYCVIAGSENIRVKNIILSNKHDVVKPAWLLECFKTKSFVPWQPRFMIHMCPSTKEHFAREYDCYGDSYFIDTDLNQLKEVFSGIKNSNEQTPEEMASLIADLEYRYSWDCSPLSMFRRHTVYLDSYAVINDLSTKNEGTRLAIKALELRFHGAKVVSCLAEGVSHVIIGEDHSRVADFKAFRRTFKRKFKILKESWVTDSIDKCELQEENQYLI
notes: DNA ligase IV (Lig4), human, C-terminal fragment with the two BRCT domains and the clamp domain, residues 654-911; also called Lig4 C-ter fragment; C-ter Lig4 protein; source: Escherichia coli BL21 (DE3), purified (HisTrap HP, HiTrap Q HP)
For B1, the binding result is given as “binds”.

(Values after PMC4786802, “Structure-Based Virtual Ligand Screening on the XRCC4/DNA Ligase IV Interface” (Scientific Reports, 2016).)
